Laboratory results taken from the RNAGym collection of RNA variant scans (doi:10.1073/pnas.2313332121).

B1: TPR t1 (parent)
chain: GACCAAUCUGCCCUCAGAGCUCGAGAACAUCUUCGGAUGCAGAGGAGGCAGGCUUCGGUGGCGCGAUAGCGCCAACGUCCUCAACCUCCAAUGCAUCCCACCACAUGAUGAUGCCUGAAGAGCCUUGGUUUUUUG

Variants of: B1
Test: polymerase ribozyme fitness, log enrichment relative to wild type (log ratio); higher = more active; in vitro selection for triplet polymerase activity
Method in brief: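 Libraries of mutants in each subunit of a heterodimeric triplet polymerase ribozyme were generated by PCR and transcribed. In triplicate, each went through one in vitro selection round: annealing with biotinylated primer, partner subunit and triplets; frozen incubation at −7 °C; gel excision of extended constructs; streptavidin-bead capture; RT-PCR. Fitness, taken from Illumina sequencing of input and output libraries, is the logarithm of a genotype's enrichment over wild-type enrichment, averaged across replicates with inverse-variance weights. The logarithm is base 2, and genotypes needed ≥10 input reads and ≥1 read per output to be kept.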

Point of comparison: U9G U14A, “polymerase ribozyme fitness (log ratio)” value -0.133. Against it:
- U81G U112G — lower, -5.41
- G120A C123A — within 0.2 log units, -0.268
- C20G C62U C98U A111U G120C — lower, -4.17
- U21A G63A C88A A91C — lower, -5.41
- C49G C62A A100U — lower, -2.34
- C4G G48U C70U — lower, -3.27
- C62A A68G C72U — lower, -3.88
- A91G C98U — lower, -1.4
- G44C A46U C86U — lower, -2.43
- C13G C15U G69A C114U — lower, -6.44
- C70A U129C — lower, -2.68
- A18G G57U U59C C62A C94U G117U — lower, -5.27
- C40G C72U — lower, -1.47
- C102U U125A U129C — lower, -3.71
- C11G C40U G63A — lower, -1.18
- G44A C56U — lower, -0.878
- C28U A41C G57C — lower, -2.88
- C20U A46C G69C C101U — lower, -4.11
- C20U C34U — lower, -5.22
- A84U C124A — higher, 1.73
- C13U A50G G52A G69A G77U — lower, -2.68
- A41U A111G — lower, -1.26
- A29G G39U C72G — lower, -3.09
- C11G A27U C49A A84U C114A G120A U125A — lower, -5.59
- G39A C115A — lower, -0.711
- C70G U78A C86A — lower, -3.32
- G71C G120A — within 0.2 log units, -0.0968
- C40A C85G C88U U129G — lower, -3.87
- C86A A105C — lower, -2.57
- U21C G69U C88U C94G C124U — lower, -1.5
- A105C C114U G120C — lower, -2.29
- C73G U96G C115G — lower, -3.54
- C20G G71A C72A C80U G110C G117C — lower, -6.92
- C22G C73A — lower, -3.17
- G36U G69U A75U — lower, -0.726
- C53A G71U G128C — lower, -2.77
- G60U C94G G110C G117A — lower, -7.56
- C8G C15A G69A C89G — lower, -5.71
- C11U G23A G110C U130G — lower, -6.32
- G10A C72G G77C A95G C101G — lower, -3.03
- U7A U9C C15A A41U C56U U92G — lower, -1.45
- U59A C70U U96C — lower, -1.25
- U54C C56U U133G — within 0.2 log units, 0.0417
- C62U C124G — higher, 1.52
- A18U C82A U92A — lower, -4.27
- C82U C114U — lower, -2.08
- C15U U54G — lower, -1.23
- C12G G61C C104U C115G U133C — lower, -5.69
- C11A U116A — lower, -4
- G51A A95C — lower, -3.42
- C4G A26G U78C C99U C114G U132C — lower, -5.4
- U54A U106A C124A U129C — higher, 0.971
- G77A C82G — lower, -1.13
- C13U A50G — within 0.2 log units, -0.113
- A43U A121C — higher, 0.506
- C4G C73A A91U — lower, -3.63
- C11U U59A A91G A118U — lower, -1.98
- C3U C11U — lower, -0.785
- G51U G93A — lower, -4.12
- A16G G113C — lower, -3.85
- C12U C53A G58C A119U — lower, -0.505
- C49A C56A C64U U130C — lower, -0.336
- C4U C20A G120U — lower, -3.69
- G10C C11G C22G C76U — lower, -4.64
- C8U C13U G35C A46U C115A — lower, -3.54
- A5C C64U — lower, -0.365
- G58U G60U C80U U87A C89U — lower, -3.57
- U9A G17U U78C C82G C86G C124U U125C — lower, -0.551
- C11U A43G — lower, -2.11
- C15G C89U A90G — lower, -2.42
- G19A C73U C86U U96A G110A — lower, -5.32
- G63C C89U C102U A111C C115U — lower, -6.78
- G47U C56G — lower, -3.09
- U7G C13A A37C G52A G69C — lower, -1.85
- U7C U9G A26G C72A — lower, -1.08
- U33G G35U G69U U78G A91C C114G G128C U132A G135A — lower, -5.79
- A2C G61A C94U — lower, -0.931
- A43G G61U — lower, -1.45
- C15U U130A — lower, -1.54
- U14C C49U A50U U55A — lower, -6.51
- C28A C79A A111C U112G — lower, -6.04
- A6U U14G — lower, -1.38
